Measured values: publication PMC6827302 (2019)

Target: unlabeled F-actin from rabbit skeletal muscle (rabbit, UniProt P68135 1-377)

Row | Kd [µM] | Binder
1 | 32 | human cMyBP-C N-terminal domains C0–C1 (domain or fragment) MPEPGKKPVSAFSKKPRSVEVAAGSPAVFEAETERAGVKVRWQRGGSDISASNKYGLATEGTRHTLTVREVGPADQGSYAVIAGSSKVKFDLKVIEAEKAEPMLAPAPAPAEATGAPGEAPAPAAELGESAPSPKGSSSAALNGPTPGAPDDPIGLFVMRPQDGEVTVGGSITFSARVAGASLLKPPVVKWFKGKWVDLSSKVGQHLQLHDSYDRASKVYLFELHITDAQPAFTGSYRCEVSTKDKFDCSNFNLTV
2 | 7 | human cMyBP-C C0–C2 3SD (S275D, S284D, S304D) (domain or fragment) MPEPGKKPVSAFSKKPRSVEVAAGSPAVFEAETERAGVKVRWQRGGSDISASNKYGLATEGTRHTLTVREVGPADQGSYAVIAGSSKVKFDLKVIEAEKAEPMLAPAPAPAEATGAPGEAPAPAAELGESAPSPKGSSSAALNGPTPGAPDDPIGLFVMRPQDGEVTVGGSITFSARVAGASLLKPPVVKWFKGKWVDLSSKVGQHLQLHDSYDRASKVYLFELHITDAQPAFTGSYRCEVSTKDKFDCSNFNLTVHEAMGTGDLDLLSAFRRTDLAGGGRRIDDSHEDTGILDFSSLLKKRDDFRTPRDSKLEAPAEEDVWEILRQAPPSEYERIAFQYGVTDLRGMLKRLKGMRRDEKKSTAFQKKLEPAYQVSKGHKIRLTVELADHDAEVKWLKNGQEIQMSGSKYIFESIGAKRTLTISQCSLADDAAYQCVVGGEKCSTELFVKEPPVLITRPLEDQLVMVGQRVEFECEVSEEGAQVKWLKDGVELTREETFKYRFKKDGQRHHLIINEAMLEDAGHYALCTSGGQALAELIVQEKKLEVYQSIADLMVGAKDQAVFKCEVSDENVRGVWLKNGKELVPDSRIKVSHIGRVHKLTIDDVTPADEADYSFVPEGFACNLSAKLHFMEVKIDFVPRQEPPKIHLDCPGRIPDTIVVVAGNKLRLDVPISGDPAPTVIWQKAITQGNKAPARPAPDAPEDTGDSDEWVFDKKLLCETEGRVRVETTKDRSIFTVEGAEKEDEGVYTVTVKNPVGEDQVNLTVKVIDVPDAPAAPKISNVGEDSCTVQWEPPAYDGGQPILGYILERKKKKSYRWMRLNFDLIQELSHEARRMIEGVVYEMRVYAVNAIGMSRPSPASQPFMPIGPPSEPTHLAVEDVSDTTVSLKWRPPERVGAGGLDGYSVEYCPEGCSEWVAALQGLTEHTSILVKDLPTGARLLFRVRAHNMAGPGAPVTTTEPVTVQEILQRPRLQLPRHLRQTIQKKVGEPVNLLIPFQGKPRPQVTWTKEGQPLAGEEVSIRNSPTDTILFIRAARRVHSGTYQVTVRIENMEDKATLVLQVVDKPSPPQDLRVTDAWGLNVALEWKPPQDVGNTELWGYTVQKADKKTMEWFTVLEHYRRTHCVVPELIIGNGYYFRVFSQNMVGFSDRAATTKEPVFIPRPGITYEPPNYKALDFSEAPSFTQPLVNRSVIAGYTAMLCCAVRGSPKPKISWFKNGLDLGEDARFRMFSKQGVLTLEIRKPCPFDGGIYVCRATNLQGEARCECRLEVRVPQ
